These results are taken from patent publication US20140314667A1, “METHODS OF TREATING EPIDERMAL GROWTH FACTOR DELETION MUTANT VIII RELATED DISORDERS” (AMGEN INC., priority 2011, published 2014).

For one assay, the target named is T1, EGFRvIII-peptide-OVA (Homo sapiens, UniProt P00533, DELINS30-297G).
T1 construct: 207 μg of EGFRvIII PEP3 was reduced; host or cells: synthetic peptide, chemical conjugation
Nature of the assay: B-cell culture supernatant ELISA on EGFRvIII-peptide-OVA. The format is binding. The settings on record: XenoMax approach, in words. As to the method: B-cells from the above-discussed animals were harvested and cultured. Those secreting EGFRvIII-peptide specific antibodies were isolated as described in Babcook et al., Proc. Natl. Acad. Sci. USA, 93:7843-7848 (1996). ELISA was used to identify primary EGFRvIII-peptide-OVA-specific wells. About 5 million B-cells were cultured from XenoMouse animals in 24596 well plates at 500 or 150 or 50 cells/well, and were screened on EGFRvIII-peptide-OVA to identify the antigen-specific wells.
244 of EGFRvIII-peptide-OVA-Elisa positive wells of OD >0.5 were screened again on EGFRvIII-peptide-OVA and on OVA to confirm that they were EGFRvIII-peptide specific.
Background: ELISA stands for enzyme-linked immunosorbent assay.

Assay [1] addresses T2, NR6 Wt cells (NR6 cells expressing EGF receptor) (Homo sapiens, UniProt P00533).
T2 construct: expressed in transfected cells; host or cells: NR6 cells (NR6 Wt)
The assay can be described thus: Native cell binding assay by FMAT, NR6 Wt cells. The settings on record: XenoMax approach, in words. From the text: The same type of native binding assay was done on NR6 Wt cells (NR6 cells expressing EGF receptor) (See Batra et al. Epidermal growth factor ligand-independent, unregulated, cell-transforming potential of a naturally occurring human mutant EGFRvIII gene. Cell Growth Differ. 6(10):1251-9 (1995)) to eliminate the binding is due to binding to Wt receptor (Table 3.8). ABX-EGF was used as a positive control and PK 16.3.1 at the same concentration was used as a negative control antibody. 3 out the 134 NR6 M binders were binding strongly to NR6 Wt cells. 190 of the 244 wells bound EGFRvIII peptide in Elisa were also bound to the native form on cells.
In this example, binding of anti-EGFRvIII antibodies to NR6 M cells was measured. Specifically, unquantitated supernatants of XenoMax derived IgG1 recombinant antibodies were assayed for their ability to bind to NR6 M and NR6 WT cells. Cells were seeded at 10000/well and incubated overnight at 37 C in FMAT 96 well plates. Media was removed and 40 μl mini lipo supernatant (titrated down) was added, the cells were incubated on ice for 1 hr. […] The PK 16.3.1 antibody was used as a negative control. The cells were washed with Cold PBS, secondary antibody was added (SS Alexa antihuman IgG Fc) at 1 μg/ml, 40 μl/well and incubated on ice for 1 hr. The cells were then washed with Cold PBS and fixed and read by FMAT. All antibodies were tested for specificity for binding by counter screening against NR6 WT cells.

For assay [2], the target named is T3, EGFRvIII receptor in NR6 M cells (Homo sapiens, UniProt P00533, DELINS30-297G).
T3 construct: NR6 M cells stably expressing full length EGFRvIII; expressed in transfected cells; host or cells: NR6 cells (NR6 M)
The assay can be described thus: Internalization of EGFRvIII receptor by recombinant mAbs (FACS). The format is cell-based. The settings on record: 0.25 μg/ml antibody, 1 hr. The method, then:
XenoMax derived IgG1 recombinant antibodies were expressed, purified and quantitated as described previously. Antibodies were further assayed for their ability to internalize the EGFRvIII receptor in NR6 M cells. […] The cells were washed with cold 10% FCS in PBS and secondary antibody (SS Alexa antihuman IgG Fab) at 3 μg/ml Fab was added and incubated for 7 mins on ice. The cells were washed with cold 10% FCS in PBS once and then resuspended in cold media. Next, two sets of the triplicate were incubated at 37° C. and the remaining set was incubated at 4° C. for 1 hr. After that the cells incubated at 4° C. and one set of the cells incubated at 37° C. were treated with glutathione (as previously mentioned) for 1 hr on ice. Then the cells were washed and resuspended in 100 μl of cold 1% FCS in PBS and analyzed by FACS. The % internalization was calculated from the geometric mean obtained from the FACS analysis [(mean at 37° C. with glutathione−mean at 4° C. with glutathione)/(mean at 37° C. without glutathione−mean at 4 C with glutathione)].

B1: 250: XenoMax derived anti-EGFRvIII antibody, SEQ ID NO: 9/26 (antibody, listed as Homo sapiens, V domains shown)
VH: EGQLLESGGGWVQPGESLRLSCAASGFTFSSYAMSWVRQAPGKGLEWVSAISGSGGSTNYADSVKGRFTISRDNSKNTLYLQVNSLRVEDTAVYYCAGSSGWSEYWGQGTLVTVSS
VL: DIQMTQSPSSLSASVGDSVTITCRTSQGIRKNLGWYQQKPGKAPKRLIYAASSLQSGVPSRFSGSGSGTEFTLTISRLQPEDFATYYCLQHHSYPLTFGGGTRVEIR
With B1, the “binding with the pep3” value in the assay with EGFRvIII-peptide-OVA is “highly specific”. Moreover, the “cross-reactivity with wild type EGFR” value in assay [1] is “limited cross-reactivity with wild type EGFR”. Also, in assay [2], the “FACS Geometric mean With glutathione 4° C.” value is reported as 4.84 and the “FACS Geometric mean With glutathione 37° C.” value is 8.07.

B2: 095: XenoMax derived anti-EGFRvIII antibody, SEQ ID NO: 7/23 (antibody, listed as Homo sapiens, V domains shown)
VH: QVQLQESGPFLVKPSQTLSLTCTVSGGSISSGGYYWSWIRQHPGKGLEWIGFIYYRGNTYYNPSLKSRVTISVDTSKNQFSLKLSSVTAADTAVYYCARDGYCSRTGCYGGWFDPWGQGTLVTVSP
VL: DIVMTQTPLSSPVTLGQPASISCRSSQSLIHTDGNIYLSWLQQRPGQPPRLLIYKISNRFSGVPDRFSGSGAGTDFTLKISRVEAEDVGVYYCMQGTQFPITFGQGTRLEIK
For B2, in the assay with EGFRvIII-peptide-OVA, the “binding with the pep3” value is reported as “highly specific”. Also, the “cross-reactivity with wild type EGFR” value in assay [1] is given as “limited cross-reactivity with wild type EGFR”. In assay [2], the “FACS Geometric mean With glutathione 4° C.” value turned out to be 5.13 and the “FACS Geometric mean With glutathione 37° C.” value stood at 17.75.
